Laboratory results published in PMC9411592, “Specificity of TGF-β1 signal designated by LRRC33 and integrin αVβ8” (Nature Communications, 2022).

Columns and labels:
[1] = biological target: L-TGF-β1/LRRC33 complex (L-TGF-β1 dimer disulfide-linked to one LRRC33 ectodomain) (human, N-linked glycosylation | N-linked glycosylation); test: cryo-EM structure; purified αVβ8 headpiece and purified L-TGF-β1/LRRC33 mixed on ice at a molar ratio of 2.2:1 with 1 mM MnCl2 and 0.2 mM CaCl2, then SEC; 2:2:1 map at 5.19 Å, masked 1:2 αVβ8/L-TGF-β1 at 3.24 Å; conditions: both partners purified
Chain of L-TGF-β1/LRRC33 complex (L-TGF-β1 dimer disulfide-linked to one LRRC33 ectodomain) (human, N-linked glycosylation | N-linked glycosylation) (chain, as listed by the source, chain 1 of 2): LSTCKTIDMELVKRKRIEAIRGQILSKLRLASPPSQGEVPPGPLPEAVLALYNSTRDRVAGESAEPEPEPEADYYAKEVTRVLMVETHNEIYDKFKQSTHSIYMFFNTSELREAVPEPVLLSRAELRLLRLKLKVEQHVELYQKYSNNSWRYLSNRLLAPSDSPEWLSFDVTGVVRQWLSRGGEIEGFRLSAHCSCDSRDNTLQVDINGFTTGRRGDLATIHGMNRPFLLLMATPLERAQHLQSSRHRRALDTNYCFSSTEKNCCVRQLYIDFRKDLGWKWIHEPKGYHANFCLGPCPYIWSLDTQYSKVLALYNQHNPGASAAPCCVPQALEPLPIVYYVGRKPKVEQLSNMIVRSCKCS
Chain of L-TGF-β1/LRRC33 complex (L-TGF-β1 dimer disulfide-linked to one LRRC33 ectodomain) (human, N-linked glycosylation | N-linked glycosylation) (chain, as listed by the source, chain 2 of 2): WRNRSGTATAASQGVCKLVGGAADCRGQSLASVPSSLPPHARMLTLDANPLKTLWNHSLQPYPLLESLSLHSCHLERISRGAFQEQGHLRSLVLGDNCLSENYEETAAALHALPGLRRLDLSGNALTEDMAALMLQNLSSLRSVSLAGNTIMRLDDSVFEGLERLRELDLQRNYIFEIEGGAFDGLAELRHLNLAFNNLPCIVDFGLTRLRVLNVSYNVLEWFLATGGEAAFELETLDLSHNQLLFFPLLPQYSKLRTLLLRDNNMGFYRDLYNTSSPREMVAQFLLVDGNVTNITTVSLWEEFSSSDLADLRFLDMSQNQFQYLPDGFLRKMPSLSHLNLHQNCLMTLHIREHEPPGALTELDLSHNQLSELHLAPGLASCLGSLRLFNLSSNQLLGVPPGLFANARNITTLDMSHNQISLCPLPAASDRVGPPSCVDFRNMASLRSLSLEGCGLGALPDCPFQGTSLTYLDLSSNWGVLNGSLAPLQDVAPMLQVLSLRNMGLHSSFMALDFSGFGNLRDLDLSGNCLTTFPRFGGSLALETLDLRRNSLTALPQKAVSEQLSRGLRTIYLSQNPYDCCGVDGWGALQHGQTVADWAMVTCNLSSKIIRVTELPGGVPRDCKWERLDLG

[2] = biological target: T1, L-TGF-β1 C4S/R249A (the 'WT' of the SPR assay) (human); test: SPR; Biacore T200, 25 °C; L-TGF-β1 (C4S/R249A, or + RGEGATG) immobilised on a CM5 chip by amine coupling; integrin headpieces injected at 20 μl/min in 20 mM HEPES pH 7.5, 150 mM NaCl, 1 mM MgCl2, 1 mM CaCl2; 1:1 Langmuir model; conditions: both partners purified
T1 construct: latent TGF-β1, human, with C4S and R249A; numbers count on: the protein without its signal peptide; The methods describe L-TGF-β1 alone as N-terminally His6-tagged, made in HEK293S GnTI- cells, tag cleaved with PreScission; also called WT (C4S/R249A) L-TGF-β1; mutant L-TGF-β1 (C4S/R249A); source: purified
T1 sequence (P01137 other isoform, or with tags, fused parts or gaps R249A R249A): as the sequence (chain, as listed by the source, chain 1 of 2) above, with C4S, R249A counted along it

Row | stoichiometry N [1] | Kd [2] | Binder
1 | 2 αVβ8 per L-TGF-β1 dimer/LRRC33 complex | 111 nM | integrin αVβ8 headpiece (αV residues 1-594, β8 residues 1-456) (complex) chain 1: FNLDVDSPAEYSGPEGSYFGFAVDFFVPSASSRMFLLVGAPKANTTQPGIVEGGQVLKCDWSSTRRCQPIEFDATGNRDYAKDDPLEFKSHQWFGASVRSKQDKILACAPLYHWRTEMKQEREPVGTCFLQDGTKTVEYAPCRSQDIDADGQGFCQGGFSIDFTKADRVLLGGPGSFYWQGQLISDQVAEIVSKYDPNVYSIKYNNQLATRTAQAIFDDSYLGYSVAVGDFNGDGIDDFVSGVPRAARTLGMVYIYDGKNMSSLYNFTGEQMAAYFGFSVAATDINGDDYADVFIGAPLFMDRGSDGKLQEVGQVSVSLQRASGDFQTTKLNGFEVFARFGSAIAPLGDLDQDGFNDIAIAAPYGGEDKKGIVYIFNGRSTGLNAVPSQILEGQWAARSGCPPSFGYSMKGATDIDKNGYPDLIVGAFGVDRAILYRARPVITVNAGLEVYPSILNQDNKTCSLPGTALKVSCFNVRFCLKADGKGVLPRKLNFQVELLLDKLKQKGAIRRALFLYSRSPSHSKNMTISRGGLMQCEELIAYLRDESEFRDKLTPITIFMEYRLDYRTAADTTGLQPILNQFTPANISRQAHILLD chain 2: EDNRCASSNAASCARCLALGPECGWCVQEDFISGGSRSERCDIVSNLISKGCSVDSIEYPSVHVIIPTENEINTQVTPGEVSIQLRPGAEANFMLKVHPLKKYPVDLYYLVDVSASMHNNIEKLNSVGNDLSRKMAFFSRDFRLGFGSYVDKTVSPYISIHPERIHNQCSDYNLDCMPPHGYIHVLSLTENITEFEKAVHRQKISGNIDTPEGGFDAMLQAAVCESHIGWRKEAKRLLLVMTDQTSHLALDSKLAGIVCPNDGNCHLKNNVYVKSTTMEHPSLGQLSEKLIDNNINVIFAVQGKQFHWYKDLLPLLPGTIAGEIESKAANLNNLVVEAYQKLISEVKVQVENQVQGIYFNITAICPDGSRKPGMEGCRNVTSNDEVLFNVTVTMKKCDVTGGKNYAIIKPIGFNETAKIHIHRNCSCQCEDNRGPKGKCVDETFLDSKCFQCDENK
2 | – | 46.9 nM | integrin αVβ6-8DLL headpiece (the disulfide-linked loop of β6 substituted by that of β8) (complex) chain 1: FNLDVDSPAEYSGPEGSYFGFAVDFFVPSASSRMFLLVGAPKANTTQPGIVEGGQVLKCDWSSTRRCQPIEFDATGNRDYAKDDPLEFKSHQWFGASVRSKQDKILACAPLYHWRTEMKQEREPVGTCFLQDGTKTVEYAPCRSQDIDADGQGFCQGGFSIDFTKADRVLLGGPGSFYWQGQLISDQVAEIVSKYDPNVYSIKYNNQLATRTAQAIFDDSYLGYSVAVGDFNGDGIDDFVSGVPRAARTLGMVYIYDGKNMSSLYNFTGEQMAAYFGFSVAATDINGDDYADVFIGAPLFMDRGSDGKLQEVGQVSVSLQRASGDFQTTKLNGFEVFARFGSAIAPLGDLDQDGFNDIAIAAPYGGEDKKGIVYIFNGRSTGLNAVPSQILEGQWAARSGCPPSFGYSMKGATDIDKNGYPDLIVGAFGVDRAILYRARPVITVNAGLEVYPSILNQDNKTCSLPGTALKVSCFNVRFCLKADGKGVLPRKLNFQVELLLDKLKQKGAIRRALFLYSRSPSHSKNMTISRGGLMQCEELIAYLRDESEFRDKLTPITIFMEYRLDYRTAADTTGLQPILNQFTPANISRQAHILLD chain 2: HVQGGCALGGAETCEDCLLIGPQCAWCAQENFTHPSGVGERCDTPANLLAKGCQLNFIENPVSQVEILKNKPLSVGRQKNSSDIVQIAPQSLILKLRPGGAQTLQVHVRQTEDYPVDLYYLMDLSASMDDDLNTIKELGSRLSKEMSKLTSNFRLGFGSFVEKPVSPFVKTTPEEIANPCSDYNLDCLPTFGFKHILPLTNDAERFNEIVKNQKISANIDTPEGGFDAIMQAAVCKEKIGWRNDSLHLLVFVSDADSHFGMDSKLAGIVCPNDGLCHLDSKNEYSMSTVLEYPTIGQLIDKLVQNNVLLIFAVTQEQVHLYENYAKLIPGATVGLLQKDSGNILQLIISAYEELRSEVELEVLGDTEGLNLSFTAICNNGTLFQHQKKCSHMKVGDTASFSVTVNIPHCERRSRHIIIKPVGLGDALELLVSPECNCDCQKEVEVNSSKCHHGNGSFQCGVCACHPGHMGPRCE
3 | – | 2.18 nM | integrin αVβ6 headpiece (αV residues 1-594, β6 residues 1-474) (complex) chain 1: FNLDVDSPAEYSGPEGSYFGFAVDFFVPSASSRMFLLVGAPKANTTQPGIVEGGQVLKCDWSSTRRCQPIEFDATGNRDYAKDDPLEFKSHQWFGASVRSKQDKILACAPLYHWRTEMKQEREPVGTCFLQDGTKTVEYAPCRSQDIDADGQGFCQGGFSIDFTKADRVLLGGPGSFYWQGQLISDQVAEIVSKYDPNVYSIKYNNQLATRTAQAIFDDSYLGYSVAVGDFNGDGIDDFVSGVPRAARTLGMVYIYDGKNMSSLYNFTGEQMAAYFGFSVAATDINGDDYADVFIGAPLFMDRGSDGKLQEVGQVSVSLQRASGDFQTTKLNGFEVFARFGSAIAPLGDLDQDGFNDIAIAAPYGGEDKKGIVYIFNGRSTGLNAVPSQILEGQWAARSGCPPSFGYSMKGATDIDKNGYPDLIVGAFGVDRAILYRARPVITVNAGLEVYPSILNQDNKTCSLPGTALKVSCFNVRFCLKADGKGVLPRKLNFQVELLLDKLKQKGAIRRALFLYSRSPSHSKNMTISRGGLMQCEELIAYLRDESEFRDKLTPITIFMEYRLDYRTAADTTGLQPILNQFTPANISRQAHILLD chain 2: HVQGGCALGGAETCEDCLLIGPQCAWCAQENFTHPSGVGERCDTPANLLAKGCQLNFIENPVSQVEILKNKPLSVGRQKNSSDIVQIAPQSLILKLRPGGAQTLQVHVRQTEDYPVDLYYLMDLSASMDDDLNTIKELGSRLSKEMSKLTSNFRLGFGSFVEKPVSPFVKTTPEEIANPCSSIPYFCLPTFGFKHILPLTNDAERFNEIVKNQKISANIDTPEGGFDAIMQAAVCKEKIGWRNDSLHLLVFVSDADSHFGMDSKLAGIVCPNDGLCHLDSKNEYSMSTVLEYPTIGQLIDKLVQNNVLLIFAVTQEQVHLYENYAKLIPGATVGLLQKDSGNILQLIISAYEELRSEVELEVLGDTEGLNLSFTAICNNGTLFQHQKKCSHMKVGDTASFSVTVNIPHCERRSRHIIIKPVGLGDALELLVSPECNCDCQKEVEVNSSKCHHGNGSFQCGVCACHPGHMGPRCE
